Reference: the Human Domainome abundance scans (Beltran et al. 2025)
± gives the uncertainty stated by the source.

B1: POU domain, class 4, transcription factor 3, residues 185 to 256; numbered along this chain, Q15319 (parent)
chain: RELEAFAERFKQRRIKLGVTQADVGAALANLKIPGVGSLSQSTICRFESLTLSHNNMIALKPVLQAWLEEAE

Variants of: B1
Assay: abundance fitness (aPCA) (normalised: wild type 0, dead -1); higher = more abundant; growth selection in yeast, the domain comes from the species named
Details: Homo sapiens

Q: With RELEAFAERFKQRRNKLGVTQADVGAALANLKIPGVGSLSQSTICRFESLTLSHNNMIALKPVLQAWLEEAE [I15N] as the variant, how does the abundance fitness read?
A: -0.147 ± 0.13

Q: With RELEAFAERFKQRRPKLGVTQADVGAALANLKIPGVGSLSQSTICRFESLTLSHNNMIALKPVLQAWLEEAE [I15P] as the variant, how does the abundance fitness read?
A: -0.915 ± 0.36

Q: With RELEAFAERFKQRRQKLGVTQADVGAALANLKIPGVGSLSQSTICRFESLTLSHNNMIALKPVLQAWLEEAE [I15Q] as the variant, how does the abundance fitness read?
A: -0.321 ± 0.12

Q: With RELEAFAERFKQRRSKLGVTQADVGAALANLKIPGVGSLSQSTICRFESLTLSHNNMIALKPVLQAWLEEAE [I15S] as the variant, how does the abundance fitness read?
A: -0.183 ± 0.12

Q: Which abundance fitness does the source give for RELEAFAERFKQRRTKLGVTQADVGAALANLKIPGVGSLSQSTICRFESLTLSHNNMIALKPVLQAWLEEAE [I15T] here?
A: 0.02 ± 0.1

Q: For RELEAFAERFKQRRVKLGVTQADVGAALANLKIPGVGSLSQSTICRFESLTLSHNNMIALKPVLQAWLEEAE [I15V], which abundance fitness is on record?
A: -0.098 ± 0.055

Q: With RELEAFAERFKQRRWKLGVTQADVGAALANLKIPGVGSLSQSTICRFESLTLSHNNMIALKPVLQAWLEEAE [I15W] as the variant, how does the abundance fitness read?
A: -0.527 ± 0.32

Q: With RELEAFAERFKQRRYKLGVTQADVGAALANLKIPGVGSLSQSTICRFESLTLSHNNMIALKPVLQAWLEEAE [I15Y] as the variant, how does the abundance fitness read?
A: -0.32 ± 0.086

Q: With RELEAFAERFKQRRIALGVTQADVGAALANLKIPGVGSLSQSTICRFESLTLSHNNMIALKPVLQAWLEEAE [K16A] as the variant, how does the abundance fitness read?
A: 0.055 ± 0.039

Q: With RELEAFAERFKQRRICLGVTQADVGAALANLKIPGVGSLSQSTICRFESLTLSHNNMIALKPVLQAWLEEAE [K16C] as the variant, how does the abundance fitness read?
A: 0.017 ± 0.051

Q: Which abundance fitness does the source give for RELEAFAERFKQRRIDLGVTQADVGAALANLKIPGVGSLSQSTICRFESLTLSHNNMIALKPVLQAWLEEAE [K16D] here?
A: -0.132 ± 0.32

Q: For RELEAFAERFKQRRIELGVTQADVGAALANLKIPGVGSLSQSTICRFESLTLSHNNMIALKPVLQAWLEEAE [K16E], which abundance fitness is on record?
A: 0.077 ± 0.067

Q: For RELEAFAERFKQRRIFLGVTQADVGAALANLKIPGVGSLSQSTICRFESLTLSHNNMIALKPVLQAWLEEAE [K16F], which abundance fitness is on record?
A: -0.284 ± 0.058

Q: Which abundance fitness does the source give for RELEAFAERFKQRRIGLGVTQADVGAALANLKIPGVGSLSQSTICRFESLTLSHNNMIALKPVLQAWLEEAE [K16G] here?
A: -0.129 ± 0.042

Q: For RELEAFAERFKQRRIHLGVTQADVGAALANLKIPGVGSLSQSTICRFESLTLSHNNMIALKPVLQAWLEEAE [K16H], which abundance fitness is on record?
A: -0.077 ± 0.045

Q: Which abundance fitness does the source give for RELEAFAERFKQRRIILGVTQADVGAALANLKIPGVGSLSQSTICRFESLTLSHNNMIALKPVLQAWLEEAE [K16I] here?
A: -0.192 ± 0.1

Q: Which abundance fitness does the source give for RELEAFAERFKQRRIMLGVTQADVGAALANLKIPGVGSLSQSTICRFESLTLSHNNMIALKPVLQAWLEEAE [K16M] here?
A: 0.008 ± 0.039

Q: With RELEAFAERFKQRRIPLGVTQADVGAALANLKIPGVGSLSQSTICRFESLTLSHNNMIALKPVLQAWLEEAE [K16P] as the variant, how does the abundance fitness read?
A: -0.968 ± 0.049

Q: For RELEAFAERFKQRRIRLGVTQADVGAALANLKIPGVGSLSQSTICRFESLTLSHNNMIALKPVLQAWLEEAE [K16R], which abundance fitness is on record?
A: -0.01 ± 0.027

Q: For RELEAFAERFKQRRISLGVTQADVGAALANLKIPGVGSLSQSTICRFESLTLSHNNMIALKPVLQAWLEEAE [K16S], which abundance fitness is on record?
A: 0.011 ± 0.027

Q: For RELEAFAERFKQRRITLGVTQADVGAALANLKIPGVGSLSQSTICRFESLTLSHNNMIALKPVLQAWLEEAE [K16T], which abundance fitness is on record?
A: -0.063 ± 0.033

Q: Which abundance fitness does the source give for RELEAFAERFKQRRIVLGVTQADVGAALANLKIPGVGSLSQSTICRFESLTLSHNNMIALKPVLQAWLEEAE [K16V] here?
A: -0.099 ± 0.042

Q: With RELEAFAERFKQRRIWLGVTQADVGAALANLKIPGVGSLSQSTICRFESLTLSHNNMIALKPVLQAWLEEAE [K16W] as the variant, how does the abundance fitness read?
A: -0.224 ± 0.037

Q: For RELEAFAERFKQRRIYLGVTQADVGAALANLKIPGVGSLSQSTICRFESLTLSHNNMIALKPVLQAWLEEAE [K16Y], which abundance fitness is on record?
A: -0.195 ± 0.091

Q: With RELEAFAERFKQRRIKFGVTQADVGAALANLKIPGVGSLSQSTICRFESLTLSHNNMIALKPVLQAWLEEAE [L17F] as the variant, how does the abundance fitness read?
A: -0.405 ± 0.12

Q: Which abundance fitness does the source give for RELEAFAERFKQRRIKHGVTQADVGAALANLKIPGVGSLSQSTICRFESLTLSHNNMIALKPVLQAWLEEAE [L17H] here?
A: -0.871 ± 0.24

Q: With RELEAFAERFKQRRIKIGVTQADVGAALANLKIPGVGSLSQSTICRFESLTLSHNNMIALKPVLQAWLEEAE [L17I] as the variant, how does the abundance fitness read?
A: -0.359 ± 0.22

Q: For RELEAFAERFKQRRIKKGVTQADVGAALANLKIPGVGSLSQSTICRFESLTLSHNNMIALKPVLQAWLEEAE [L17K], which abundance fitness is on record?
A: -0.466 ± 0.19

Q: For RELEAFAERFKQRRIKMGVTQADVGAALANLKIPGVGSLSQSTICRFESLTLSHNNMIALKPVLQAWLEEAE [L17M], which abundance fitness is on record?
A: -0.099 ± 0.16

Q: For RELEAFAERFKQRRIKNGVTQADVGAALANLKIPGVGSLSQSTICRFESLTLSHNNMIALKPVLQAWLEEAE [L17N], which abundance fitness is on record?
A: -0.474 ± 0.47

Q: Which abundance fitness does the source give for RELEAFAERFKQRRIKQGVTQADVGAALANLKIPGVGSLSQSTICRFESLTLSHNNMIALKPVLQAWLEEAE [L17Q] here?
A: -0.983 ± 0.34

Q: For RELEAFAERFKQRRIKRGVTQADVGAALANLKIPGVGSLSQSTICRFESLTLSHNNMIALKPVLQAWLEEAE [L17R], which abundance fitness is on record?
A: -0.543 ± 0.37

Q: For RELEAFAERFKQRRIKVGVTQADVGAALANLKIPGVGSLSQSTICRFESLTLSHNNMIALKPVLQAWLEEAE [L17V], which abundance fitness is on record?
A: -0.682 ± 0.21

Q: For RELEAFAERFKQRRIKYGVTQADVGAALANLKIPGVGSLSQSTICRFESLTLSHNNMIALKPVLQAWLEEAE [L17Y], which abundance fitness is on record?
A: -0.448 ± 0.14

Q: With RELEAFAERFKQRRIKLAVTQADVGAALANLKIPGVGSLSQSTICRFESLTLSHNNMIALKPVLQAWLEEAE [G18A] as the variant, how does the abundance fitness read?
A: -0.43 ± 0.12

Q: Which abundance fitness does the source give for RELEAFAERFKQRRIKLCVTQADVGAALANLKIPGVGSLSQSTICRFESLTLSHNNMIALKPVLQAWLEEAE [G18C] here?
A: -0.572 ± 0.097

Q: For RELEAFAERFKQRRIKLDVTQADVGAALANLKIPGVGSLSQSTICRFESLTLSHNNMIALKPVLQAWLEEAE [G18D], which abundance fitness is on record?
A: -0.463 ± 0.21
